This is an account of results in PMC4652220, “Imaging and energetics of single SSB-ssDNA molecules reveal intramolecular condensation and insight into RecOR function” (eLife, 2015).

The assay addresses T1, RecO (UniProt P0A7H3 1-242).
T1 construct: RecO recombination mediator protein; source: purified as previously described (Kantake et al., 2002)
T1 sequence (looked up): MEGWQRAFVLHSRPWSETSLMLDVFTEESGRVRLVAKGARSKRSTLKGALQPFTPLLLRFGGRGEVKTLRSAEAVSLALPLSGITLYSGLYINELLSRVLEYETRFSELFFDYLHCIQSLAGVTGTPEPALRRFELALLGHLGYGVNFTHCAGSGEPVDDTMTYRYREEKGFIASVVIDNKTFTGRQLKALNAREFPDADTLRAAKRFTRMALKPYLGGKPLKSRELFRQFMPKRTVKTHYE
The experiment in a line: magnetic tweezers force spectroscopy; single tethered ssDNA; added in turn: 100 mM NaOAc and 1 mM Mg(OAc)2, 200 nM SSB, 100 nM RecO, 1 μM RecR; 20 mM TrisOAc pH 8.0, 50 mM DTT; 25°C. The settings on record: both partners purified.

B1: RecR (natural protein, UniProt P0A7H6 1-201, looked up)
chain: MQTSPLLTQLMEALRCLPGVGPKSAQRMAFTLLQRDRSGGMRLAQALTRAMSEIGHCADCRTFTEQEVCNICSNPRRQENGQICVVESPADIYAIEQTGQFSGRYFVLMGHLSPLDGIGPDDIGLDRLEQRLAEEKITEVILATNPTVEGEATANYIAELCAQYDVEASRIAHGVPVGGELEMVDGTTLSHSLAGRHKIRF
notes: RecR recombination protein; It cites other work for RecR dimers/tetramers; source: purified as previously described (Kantake et al., 2002)
Take B1: the binding result is recorded as “binds”.
